Values of other authors, collected in patent publication US20230142365A1, “POLY(SARCOSINE) POLYMER EXCIPIENTS” (CALUSA BIO, LLC, priority 2021, published 2023).

System: anti-drug antibodies (ADAs)
Details: share of anti-drug antibodies against the TNF blocker that are neutralizing; van Schie et al. 2015

In the case of adalimumab, the ADAs neutralizing is given as 97%.

For “infliximab: tumor necrosis factor (TNF) blocker Remicade (infliximab)”, the ADAs neutralizing is given as 90%.
